Experiments:
[1] = biological target: Plasmodium knowlesi thioredoxin peroxiredoxin 1 (PkTrx-Px1), full-length His6-tagged construct (P. knowlesi H); test: LC-MS-TOF mass spectrometry; purified enzyme as isolated, without reducing agent; Agilent LC-MS-TOF, positive ion mode, desalted on a Poroshell 300-SB-C3 column; shows the covalent (disulfide-linked) dimer
[2] = biological target: Plasmodium vivax thioredoxin peroxiredoxin 1 (PvTrx-Px1), full-length His6-tagged construct (P. vivax Salvador I); test: crystal structure; PvTrx-Px1_ox, His6-tag intact, 8 mg/mL in 10 mM HEPES pH 7.5, 500 mM NaCl; 5% PEG 4K, NaAc pH 4.6, 18 C; 2.5 A
[3] = biological target: Plasmodium vivax thioredoxin peroxiredoxin 1 (PvTrx-Px1), full-length His6-tagged construct (P. vivax Salvador I); test: crystal structure; PvTrx-Px1_red, His6-tag intact, protein treated with 5 mM TCEP; 19% PEG 3350, 150 mM lithium citrate, 18 C; 2.45 A
[4] = biological target: Plasmodium vivax thioredoxin peroxiredoxin 1 (PvTrx-Px1), full-length His6-tagged construct (P. vivax Salvador I); test: LC-MS-TOF mass spectrometry; purified enzyme as isolated, without reducing agent; Agilent LC-MS-TOF, positive ion mode, desalted on a Poroshell 300-SB-C3 column; shows the covalent (disulfide-linked) dimer
[5] = biological target: Plasmodium yoelii 1-Cys peroxiredoxin of the Prx6 subfamily (PyPrx6), full-length His6-tagged construct (P. yoelii 17XNL); test: crystal structure; PyPrx6-SO2H with glycerol bound, His6-tag intact, 15 mg/mL; 23% PEG 3350, 0.1 M Bis-Tris pH 5.5, 200 mM (NH4)2SO4, 5% ethylene glycol, 20 C; 2.3 A
[6] = biological target: Plasmodium yoelii 1-Cys peroxiredoxin of the Prx6 subfamily (PyPrx6), full-length His6-tagged construct (P. yoelii 17XNL); test: SEC; calibrated Superdex S200 gel filtration column, 10 mM HEPES pH 7.4, 500 mM NaCl; PyPrx6 eluted at 220 mL
[7] = biological target: Plasmodium yoelii thioredoxin peroxiredoxin 1 (PyTrx-Px1), full-length His6-tagged construct (P. yoelii 17XNL); test: LC-MS-TOF mass spectrometry; purified enzyme as isolated, without reducing agent; Agilent LC-MS-TOF, positive ion mode, desalted on a Poroshell 300-SB-C3 column; shows the covalent (disulfide-linked) dimer
[8] = biological target: Plasmodium yoelii thioredoxin peroxiredoxin 1 with a 6-residue N-terminal truncation (PyTrx-Px1: Q7-L195) (P. yoelii 17XNL); test: crystal structure; PyTrx-Px1_ox, His6-tag intact, 4.3 mg/mL; 1.6 M ammonium sulfate, 100 mM HEPES pH 6.8, 200 mM NaAc, 20 mM NaBr, 5% ethylene glycol, 18 C; 2.3 A
[9] = biological target: Plasmodium yoelii thioredoxin peroxiredoxin 1 with a 6-residue N-terminal truncation (PyTrx-Px1: Q7-L195) (P. yoelii 17XNL); test: LC-MS-TOF mass spectrometry; purified enzyme as isolated, without reducing agent; Agilent LC-MS-TOF, positive ion mode, desalted on a Poroshell 300-SB-C3 column; shows the covalent (disulfide-linked) dimer
[10] = biological target: the molecule itself; test: as above

## Plasmodium knowlesi thioredoxin peroxiredoxin 1 (PkTrx-Px1), full-length His6-tagged construct (enzyme)
[1]
  stoichiometry N: 2

## Plasmodium vivax thioredoxin peroxiredoxin 1 (PvTrx-Px1), full-length His6-tagged construct (enzyme)
[2]
  stoichiometry N: 10
[3]
  stoichiometry N: 10
[4]
  stoichiometry N: 2

## Plasmodium yoelii 1-Cys peroxiredoxin of the Prx6 subfamily (PyPrx6), full-length His6-tagged construct (enzyme)
[5]
  stoichiometry N: 2
[6]
  stoichiometry N: 2

## Plasmodium yoelii thioredoxin peroxiredoxin 1 (PyTrx-Px1), full-length His6-tagged construct (enzyme)
[7]
  stoichiometry N: 2

## Plasmodium yoelii thioredoxin peroxiredoxin 1 with a 6-residue N-terminal truncation (PyTrx-Px1: Q7-L195) (domain or fragment)
[8]
  stoichiometry N: 8
[9]
  stoichiometry N: 2

B1: Plasmodium falciparum thioredoxin peroxiredoxin 1 (PfTrx-Px1), full-length His6-tagged construct (enzyme, P. falciparum 3D7, UniProt Q8IL80 1-195, looked up)
chain: MASYVGREAPYFKAEAVFADNTFGEVNLHDFIGKKYVLLYFYPLDFTFVCPSEIIALDKALDAFKERNVELIGCSVDSKYTHLAWKKTPLTKGGIGNIQHTLISDITKSISRSYNVLFGDSVSLRAFVLIDKQGVVQHLLVNNLAIGRSVEEVLRIIDAVQHHEQHGDVCPANWKKGKVAMKPSEEGVSEYLSKL
modifications: intermolecular disulfide between the peroxidatic and resolving cysteines (C50, C170) in the enzyme as purified
notes: thioredoxin peroxiredoxin 1 (Trx-Px1, 2-Cys Prx, Prx1 subfamily), P. falciparum 3D7, PlasmoDB PF14_0368, full length; N-terminal Met of the tag is clipped in E. coli; also called Trx-Px1 from P. falciparum
[10]
  stoichiometry N: 2

Source: publication PMC3337327, “Crystal structures from the Plasmodium peroxiredoxins: new insights into oligomerization and product binding” (BMC Structural Biology, 2012)
